For the test, the target named is citrate synthase (CS) from porcine heart (porcine) (UniProt P00889).
Sequence of UniProt P00889 (P00889 28-464): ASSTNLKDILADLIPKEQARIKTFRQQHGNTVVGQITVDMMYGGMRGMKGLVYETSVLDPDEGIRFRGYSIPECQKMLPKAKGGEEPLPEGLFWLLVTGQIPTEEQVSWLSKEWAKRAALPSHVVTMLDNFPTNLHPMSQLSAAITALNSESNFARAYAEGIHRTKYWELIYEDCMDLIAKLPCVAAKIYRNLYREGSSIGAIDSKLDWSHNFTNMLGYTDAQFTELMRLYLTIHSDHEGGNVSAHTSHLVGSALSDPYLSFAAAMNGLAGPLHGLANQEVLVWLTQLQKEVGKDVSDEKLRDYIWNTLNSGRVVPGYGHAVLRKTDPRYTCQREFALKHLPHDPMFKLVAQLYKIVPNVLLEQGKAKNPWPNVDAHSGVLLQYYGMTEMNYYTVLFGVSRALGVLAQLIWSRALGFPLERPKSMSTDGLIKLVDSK

“recombinant ZnJ6 (Cre06.g251716.t1.2) fused to the streptavidin-binding peptide (SBP) tag (natural protein)” yielded a citrate synthase thermal aggregation assay (OD360, 42 °C, 1 h): percent of CS kept soluble, ZnJ6:CS 0.1:1 to 10:1 of 86%.

(Values after paper PMC7865324.)
